This assay has as its target heterotrimeric human RPA (RPA70, RPA32, RPA14) (human, UniProt P27694;P15927;P35244). Description: SPR.

Chain of heterotrimeric human RPA (RPA70, RPA32, RPA14) (P27694 whole entry, chain 1 of 3): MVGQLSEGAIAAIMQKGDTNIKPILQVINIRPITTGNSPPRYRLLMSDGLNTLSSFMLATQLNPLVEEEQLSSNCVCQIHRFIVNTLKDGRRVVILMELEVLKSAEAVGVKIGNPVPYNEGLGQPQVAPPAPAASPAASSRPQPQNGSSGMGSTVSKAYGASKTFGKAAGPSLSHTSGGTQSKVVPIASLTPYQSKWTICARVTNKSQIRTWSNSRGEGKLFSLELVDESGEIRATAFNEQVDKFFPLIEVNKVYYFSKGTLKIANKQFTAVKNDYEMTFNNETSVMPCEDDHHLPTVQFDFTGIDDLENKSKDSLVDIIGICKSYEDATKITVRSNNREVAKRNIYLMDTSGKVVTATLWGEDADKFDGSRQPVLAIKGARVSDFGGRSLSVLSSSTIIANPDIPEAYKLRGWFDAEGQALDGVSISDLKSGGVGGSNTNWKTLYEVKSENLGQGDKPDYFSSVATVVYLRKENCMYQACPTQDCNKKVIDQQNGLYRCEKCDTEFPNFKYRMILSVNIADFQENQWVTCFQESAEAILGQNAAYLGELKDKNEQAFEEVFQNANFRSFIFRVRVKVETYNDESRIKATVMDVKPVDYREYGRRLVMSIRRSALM
Chain of heterotrimeric human RPA (RPA70, RPA32, RPA14) (P15927 whole entry, chain 2 of 3): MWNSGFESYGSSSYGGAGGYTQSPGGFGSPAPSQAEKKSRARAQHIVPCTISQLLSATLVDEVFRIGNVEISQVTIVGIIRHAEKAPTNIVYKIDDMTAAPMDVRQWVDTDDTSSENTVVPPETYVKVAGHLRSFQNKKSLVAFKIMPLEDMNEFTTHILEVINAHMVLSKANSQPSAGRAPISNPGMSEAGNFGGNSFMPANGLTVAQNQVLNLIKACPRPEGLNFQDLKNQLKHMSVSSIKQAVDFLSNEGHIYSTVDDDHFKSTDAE
Chain of heterotrimeric human RPA (RPA70, RPA32, RPA14) (P35244 whole entry, chain 3 of 3): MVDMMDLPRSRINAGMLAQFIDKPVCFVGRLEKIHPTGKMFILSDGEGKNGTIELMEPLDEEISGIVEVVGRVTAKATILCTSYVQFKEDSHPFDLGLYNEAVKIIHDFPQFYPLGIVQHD

B1: human Cdc45 (cell division cycle protein 45), recombinant, C-terminal His6 tag (natural protein)
chain: MFVSDFRKEFYEVVQSQRVLLFVASDVDALCACKILQALFQCDHVQYTLVPVSGWQELETAFLEHKEQFHYFILINCGANVDLLDILQPDEDTIFFVCDTHRPVNVVNVYNDTQIKLLIKQDDDLEVPAYEDIFRDEEEDEEHSGNDSDGSEPSEKRTRLEEEIVEQTMRRRQRREWEARRRDILFDYEQYEYHGTSSAMVMFELAWMLSKDLNDMLWWAIVGLTDQWVQDKITQMKYVTDVGVLQRHVSRHNHRNEDEENTLSVDCTRISFEYDLRLVLYQHWSLHDSLCNTSYTAARFKLWSVHGQKRLQEFLADMGLPLKQVKQKFQAMDISLKENLREMIEESANKFGMKDMRVQTFSIHFGFKHKFLASDVVFATMSLMESPEKDGSGTDHFIQALDSLSRSNLDKLYHGLELAKKQLRATQQTIASCLCTNLVISQGPFLYCSLMEGTPDVMLFSRPASLSLLSKHLLKSFVCSTKNRRCKLLPLVMAAPLSMEHGTVTVVGIPPETDSSDRKNFFGRAFEKAAESTSSRMLHNHFDLSVIELKAEDRSKFLDALISLLS
The term Kd denotes the constant that tells how readily two partners part at equilibrium. A lower Kd goes with tighter binding. In turn, B1 displayed a Kd of 115 nM.

Values taken from PMC5389570 (Nucleic Acids Research, 2017).
